Entries after “also recorded” stand apart in the source; their conditions may differ. Values belong to the substance of their own block, whether it stands above or below them. Ends that are not written are not given here.
Legend:
α-thrombin [1] = molecular target: T1, α-thrombin (Homo sapiens, UniProt P00734); assay: amidolytic activity of thrombin against S2238 after modification; format: biochemical; parameters: purchased Enzyme Research, South Bend, IN; settings: bFPRck:thrombin molar ratio 10:1, TBS pH 7.4, ten minutes ambient
Protocol: HCII- or hirudin-related peptides in 50 mM sodium phosphate pH 6.5 were combined with 20-fold molar excess sulfosuccinimidyl-6-(biotinamido) hexanoate (sulfo-NHS-LC-biotin, Pierce) at ambient temperature for 30 minutes. Reactions were quenched with excess Tris-Cl pH 7.4 and sulfo-NHS-LC-biotin removed by desalting or dialysis. Biotinylated FPR chloromethylketone (bFPRck; Haematologic Technologies, Essex Junction, VT) was used to modify α-thrombin at a bFPRck: thrombin molar ratio of 10:1 in Tris-buffered saline (TBS, pH 7.4) for ten minutes at ambient temperature. Excess reagent was removed by overnight dialysis versus TBS.

thrombin [2] = molecular target: T2, thrombin (Homo sapiens, UniProt P00734); assay: SPR competition of thrombin binding to chip-immobilized HCII 1-75
T2 construct: purchased Enzyme Research, South Bend, IN; host or cells: HCII 1-75 probe made in house in E. coli TOP10
Protocol: Surface plasmon resonance experiments were carried out using a BIAcore X biosensor instrument (Biacore, Piscataway, NJ) at 25°C. Biotinylated HCII- or hirudin-related peptides were immobilized on streptavidin-coated sensor chips (GE Healthcare) under conditions recommended by the manufacturer. […] A flow rate of 2 μL/minute was employed for immobilization runs, with 0.5 M NaCl employed as a regeneration buffer and HEPES-buffered saline (10 mM HEPES, 150 mM NaCl, 0.005% Tween-20, pH 7.7) otherwise used for binding determinations. Binding of thrombin (0-30 μM) was assessed using 20 μL injection volumes, and flow rates of 20 μL/minute. BIAcore Evaluation 3.2 (BIAcore) software was used to evaluate sensorgrams from each run, using either 1:1 Langmuir binding or steady state analysis. In some experiments various concentrations of HCII- or hirudin-related peptides were combined with 250 nM thrombin or FPR-ck-thrombin immediately prior to being flowed over chip-bound HCII 1-75.
Figure 6 Senorgrams from surface plasmon resonance (SPR) experiments. Biotinylated HCII 1-75 was bound to streptavidin-coated sensor chips and varying concentrations of thrombin were flowed over the chip, generating sensorgrams (e.g. Panel A) of the response in response units (RU) versus the time in seconds. Panel B is a plot of experiment shown in Panel A, combined with two other independent experiments; each point therefore represents the mean mid-plateau response ± the SD of 3 independent experiments. In panels C-F the thrombin concentration was fixed at 250 nM and competitor peptides identified in each panel were combined with thrombin and flowed over the chip. The concentration of competitor peptides in each experiment is shown to the left of the sensorgram.

α-thrombin [3] = molecular target: T1, α-thrombin; assay: competition of dermatan sulfate-catalysed thrombin inhibition by plasma-derived HCII (k2app); format: biochemical; parameters: purchased Enzyme Research, South Bend, IN; settings: 250 μM competitor peptide, 1.4 μM dermatan sulfate
Protocol: (§1) The apparent second-order rate constant (k2app) of α-thrombin inhibition by purified plasma-derived HCII (Affinity Biologicals, Ancaster, ON) was determined under pseudo-first order conditions involving an excess of plasma-derived HCII over α-thrombin using a discontinuous assay as previously described, with or without addition of competitor HCII 1-75, HCII 54-75, or HCII 1-53 at 0.25 mM. Briefly, plasma-derived HCII (140 nM) was incubated with α-thrombin (14 nM) in PPNE buffer (20 mM Na2HPO4, pH 7.4, 100 mM NaCl, 0.1 mM EDTA, 0.1% polyethylene glycol 8000) supplemented with 0.055 mg/mL (2 μM) standard heparin (Hepalean, Organon Teknika Canada, St. Laurent, QC) and 10 μM S2238 (DiaPharma,West Chester OH) or 0.055 mg/mL (1.4 μM) dermatan sulfate (Sigma-Aldrich, St. Louis, MO). Residual protease activity was determined by diluting the reactions 100-fold into 100 μM S2238 and measuring the absorbance at 405 nm for 5 minutes using an EL808 plate reader (BioTek Instruments, Winooski, VT).
(§2) Figure 5 Effects of HCII-derived peptides on the inhibition of thrombin by plasma-derived HCII in the presence of GAGs. […] The competing peptides that were used separately at 250 μM were: HCII 1-75; HCII 54-75; or HCII 1-53. The mean ± the SD of 3 independent experiments is shown.

α-thrombin [4] = molecular target: T1, α-thrombin; assay: competition of heparin-catalysed thrombin inhibition by plasma-derived HCII (k2app); format: biochemical; parameters: purchased Enzyme Research, South Bend, IN; settings: 250 μM competitor peptide, 140 nM plasma-derived HCII, 55 μg/mL standard heparin
Protocol: as §1, §2

human thrombin = assay: thrombin clotting time in plasma; format: biochemical
Protocol: Thrombin times were determined using Thrombin 10 (freeze-dried human thrombin with calcium [1.5 NIH units/mL] Diagnostica Stago, Asnieres, France) and an STA 4 coagulation analyzer (Diagnostica Stago). Citrated human plasma (25 μL) was combined with 75 μL veronal buffer (7.14 mM sodium acetate trihydrate, 7.4 mM sodium diethyl barbiturate, 131 mM NaCl pH 7.4) containing or lacking HCII- or hirudin-related peptides, and clotting time was determined following the addition of 100 μL Thrombin 10 reagent.
Figure 4 Effects of competitor peptides on thrombin clotting time. […] The mean ± the SD of 3 independent experiments is shown.

thrombin [5] = settings: ref [21], cited from earlier work
From the text: Although the differences between the encounter complex and the native structure support the allosteric model of activation, they provide no information on the position or role of the first 54 residues of HCII. […] We replicated this experiment and extended it to include all four of the exosite 1 ligand peptides employed in this study, as shown in Figure 4. We used the measurement previously employed to judge the potency of the peptides, the concentration required to double the thrombin clotting time. […] While there are no similar values in the literature available for HCII 1-75 for comparison to our results, ...

HCII = settings: ref [47]; read-out: KD, HCII-dermatan sulfate interaction; cited from earlier work
From the text: (§3) The relative contributions to HCII function of a template mechanism, in which thrombin and HCII become co-localized due to their binding to the same glycosaminoglycan chain, or a conformational change mechanism, in which GAG binding to HCII releases the N-terminal extension of HCII for exosite 1 binding, remain somewhat controversial, as does the degree of cross-talk between thrombin’s exosites and active site.

thrombin [6] = molecular target: T2, thrombin; settings: ref [47]; read-out: KD, thrombin binding to dermatan sulfate; cited from earlier work
From the text: as §3

α-thrombin [7] = molecular target: T1, α-thrombin; assay: competition of binding of α-thrombin to HCII 1-75 immobilized on microtiter plate wells; parameters: purchased Enzyme Research, South Bend, IN; host or cells: HCII 1-75 probe made in house in E. coli TOP10; settings: 5 nM thrombin, 37°C 30 min, anti-thrombin antibody, OD 490 nm; mean of 3 determinations ± SD
Protocol: Purified HCII 1-75 was immobilized onto an Immulon 4 HBX 96 well microtiter plate (Thermo, Milford MA), using a 1 μM solution of HCII 1-75 in PBS at 0.1 mL per well overnight at 4°C. The HCII solution was then removed and the wells blocked with 5% BSA (w/vol) in PBS-T for one hour at ambient temperature. […] Wells were washed and reacted with horseradish peroxidase-conjugated sheep anti-human thrombin antibody (Affinity Biologicals, Ancaster, ON), diluted 1:10,000 in blocking buffer, for one hour at ambient temperature. Following washes with PBS-T, colour was developed using a freshly made solution of 5 mg o-phenylenediamine (Pierce) in 12 mL of 25 mM citric acid, 97 mM Na2HPO4 pH5.0 supplemented with 0.03% (v/vol) hydrogen peroxide for ten minutes prior to stopping the reaction with sulfuric acid. The optical density at 490 nm was then read on an EL808 Plate reader (Biotek Instruments, Winooski, VT). […] The same program was used to calculate IC50s in competitive binding experiments in which HCII-derived or hirudin-derived peptides were used to compete the binding of thrombin to immobilized HCII 1-75.

Substance: Biotinylated FPR chloromethylketone [bFPRck]
- amidolytic activity of modified thrombin against S2238 (α-thrombin [1]): no detectable amidolytic activity against S2238

- Ki, inhibition of thrombin binding to HCII 1-75 (SPR) (thrombin [2]; 250 nM thrombin, chip-immobilized HCII 1-75, SPR 25°C, HBS pH 7.7, Ki from IC50 using KD 340 nM, mean of 3 determinations ± SD): No inhibition
Substance: HCII 1-53: Synthetic peptide containing the first 53 residues of human HCII and a nonapeptide N-terminal tag ({Met-Gly-Ser-H2N-H2N-H2N-H2N-H2N-H2N}-GSKGPLDQLEKGGETAQSADPQWEQLNNKNLSMPLLPADFHKENTVTNDWIPE; UniProt P05546 20-72, looked up, fragment)
- thrombin binding (thrombin [2]; summary statement, discussion/conclusions): no detectable ability to bind thrombin; also recorded: did not bind to thrombin
- effect on thrombin binding to HCII 1-75 (thrombin [2]; up to 250 μM competitor, 250 nM thrombin, SPR): no effect on thrombin binding to HCII 1-75
- effect on rate of thrombin inhibition by plasma-derived HCII, dermatan sulfate (α-thrombin [3]): no reduction in the apparent rate of inhibition
- effect on rate of thrombin inhibition by plasma-derived HCII, heparin (α-thrombin [4]): no effect; also recorded: no detectable ability to bind thrombin, to delay thrombin-mediated coagulation, or to compete for the N-terminal HCII 1-75 extension in native HCII
- effect on thrombin-mediated plasma clotting (human thrombin; plasma clotting assay): no effect; also recorded: no detectable ability to bind thrombin, to delay thrombin-mediated coagulation

Substance: HCII 54-75 peptide: synthetic peptide to HCII residues 54-75 of ref [21] (GEEDDDYLDLEKIFSEDDDYID; not fully specified (N-terminus); UniProt P05546 73-94, looked up, fragment)
- fold less potent than sulfo-Hir 54-65 as inhibitor of thrombin-mediated clotting (thrombin [5]; recalcified human plasma): approximately 30 fold
- inhibition of thrombin activities (thrombin [5]): inhibition of thrombin-mediated fibrinogen cleavage and clot formation

Substance: dermatan sulfate
- Kd (HCII): 236 to 290 µM
- Kd (thrombin [6]): 2 to 6 µM

- Ki (thrombin [2]; 250 nM thrombin, chip-immobilized HCII 1-75, SPR 25°C, HBS pH 7.7, Ki from IC50 using KD 340 nM, mean of 3 determinations ± SD, read-out: Ki, inhibition of thrombin binding to HCII 1-75 (SPR)): 54 ± 90 nM
- fold more effective competitor of thrombin binding than HCII 1-75 (thrombin [2]; SPR competition): 48 fold
- IC50 (α-thrombin [7]): 140 ± 40 nM
Substance: sulfo-Hir 54-65: Synthetic peptide containing the C-terminal 12 residues of hirudin, with Tyr63 sulfated [reference compound]
- concentration required to double the thrombin clotting time (human thrombin; diluted citrated human plasma, Thrombin 10 reagent, mean of 3 determinations ± SD): 0.150 ± 0.02 µM
